In patent publication US6348573B1, “Compositions and methods for identifying apoptosis signaling pathway inhibitors and activators” (The Regents of the University of Michigan, priority 1998, dated 2002):

What was measured:
FADD = molecular target: T1, FADD (Homo sapiens, UniProt Q13158); test: In vitro phosphorylation of recombinant FADD by RICK immunoprecipitates; format: biochemical; settings: immunoprecipitates from 293T cells, 5 μM [γ-32P]ATP
T1 construct: made in house
T1 sequence (Q13158 1-208): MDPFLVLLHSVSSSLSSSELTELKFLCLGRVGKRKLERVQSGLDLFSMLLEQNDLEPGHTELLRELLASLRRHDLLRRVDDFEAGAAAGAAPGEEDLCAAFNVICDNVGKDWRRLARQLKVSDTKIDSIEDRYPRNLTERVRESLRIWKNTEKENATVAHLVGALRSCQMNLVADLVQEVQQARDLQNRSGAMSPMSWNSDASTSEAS
Description: CIPERK proteins in total lysate were detected by immunoblotting with mAb to Flag (middle panel). Recombinant FADD on the same filter used in (A) was detected by immunoblotting, with rabbit polyclonal anti-(His)6 antibody (lower panel). Note CIPERK was autophosphorylated. The estimated molecular size is shown on the left [293T cells were transfected with vector control or plasmid expressing Flag-CIPERK (WT) or Flag-CIPERK-K38M (mt), and then CIPERK proteins were immunoprecipitated by mAb to Flag and incubated with recombinant FADD and 5 μM [γ-^32P]ATP].

RICK = RICK (Homo sapiens, UniProt O43353); test: Autophosphorylation of RICK; settings: immunoprecipitated from 293T cells, [γ-32P]ATP
Sequence of RICK (O43353 with tags, fused parts or gaps): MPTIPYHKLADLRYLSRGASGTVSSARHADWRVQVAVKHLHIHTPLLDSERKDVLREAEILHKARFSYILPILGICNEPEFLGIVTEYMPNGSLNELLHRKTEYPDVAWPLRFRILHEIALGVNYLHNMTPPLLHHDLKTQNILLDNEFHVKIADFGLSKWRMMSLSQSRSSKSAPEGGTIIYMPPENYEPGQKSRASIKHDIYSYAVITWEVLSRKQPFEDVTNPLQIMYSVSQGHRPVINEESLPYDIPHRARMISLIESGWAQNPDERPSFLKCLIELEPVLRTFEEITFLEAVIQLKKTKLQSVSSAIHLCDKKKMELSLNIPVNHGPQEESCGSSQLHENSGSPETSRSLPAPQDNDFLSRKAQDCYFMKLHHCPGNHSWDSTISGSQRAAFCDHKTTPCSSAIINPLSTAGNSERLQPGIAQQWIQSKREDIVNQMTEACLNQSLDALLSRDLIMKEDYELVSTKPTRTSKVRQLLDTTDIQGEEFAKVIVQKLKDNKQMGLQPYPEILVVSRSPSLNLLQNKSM

RICK-K38M: RICK ATP-binding site mutant, lysine at position 38 replaced by methionine
phosphorylation of recombinant FADD (FADD): did not | auto-phosphorylation in vitro (RICK): dramatically decreased
